According to the DeepSol protein solubility set:

Experiment: soluble on expression in E. coli; label from the status in PepcDB or PDB records

Sequence	soluble on expression in E. coli
MFENTKKALETFRTAIECVKCKKPRGDLQYLGSSCKHAYCWECIATFQQKPSGKRSSVARHMCPSCAFPLDTSKITEAHMLKTCFDTLSELNDLLQKVGTTSLTQAEFACTQNIFNKEKTPADAVEKFLETQAHMPDEMGQLGEEDDDLMCKDENRENSNSPELDIFHDYSKEASPTRNSTKRPSTVSVHERKPKRTLTEILQRRSTAPAATGVATYAQAFGSSSNPVKAEIIEEDIFSKAIPLTKRQASMSASAKKQPKLEPEEPEEVPSTSRSRKNSIKSDKIERRSQSPMSFGEKSMSVKSEQRRSSYGTRRGEAVLVNSIRNNRIPQLRSAVEAGTCVNEKEDGKTPLYVAVENSSLEAVKILVEAGAVINASCGSTLETTLHEAVRRQNTQIVEYLLSKGASIKIRNIAGKTVEEMAKSDPKIRKIIEKFKTEQRVLQPVVAPPKSRLHFVQLIDEKMLTESEKRKLPGKINIVPADMDSPTHVVVTVDLKTRVLNINKEHIGEILKAIIKSGMIVSRDWLRACIIDPSKVDDDRSYMVQKVRWMEGEVFENTIEQWKKTITKMQPKLFAGCKFFIPKPKYNFLDRPALFEIIRSAGGQAAAREPIIDEKDPPPYHNANLKPNFVLYSLTHDIGDKFRDCTKYNLVSEQWLIEAILGCSITTPPH	not soluble
MFEQIKNNVENAIEALKQGKPVVVLDDYDRENEGDLILPGQKATEENIAFMLEHTSGIICLAMDSKKARELNLTPMVAADQNNSTFTTPFTVTIEAKEGVTTGVSAKDRAHTIQVASKADSKAEELARPGHIFPLIANDKGVLGRNGHTEATVDLMKLSGFNSAGVLCELMNKDGTMMKAAELEAFAKKHDLPLLTIAELYQYRLATENFVTKMASSTIPFKKIGELEMSVYKDNFSGDEVVVLSKPYSGNNPLVRMHSSCITGDIFGSLRCDCQDQLHKGIEMISEEGGFFIYLDQEGRGIGLTNKLKAYNLQMNENMDTLEANLALGLPADARKYDLAIQVLKYNNVNRCRLISNNPEKLAALRNVDIETQPVYCEAFVNSHNRNYLITKKIKAKHTIKGI	not soluble
MFERFDSDRSRYASLGVVSSLPSGLIDSIWLIIDLNLKGVIPLNDLLHFDLLNNNGKVTVHFSQENSSVEMAIDLPFSYSTAYPSRIFAFDDGHRETILLPAEMLES	soluble
MFGNHGQLFRLSVFRSADTAQQFLRQCYQQLQRDDAVQRSYANCYPFLYYLEHGQNFYAAAQQAPLSIKPVLLFYGMVQLLKACLLTVDPDYPESTSVLAHGVSARKRKKQGYEFLDDEVKIQKNGLFAHFSEKMFHVKQEAGEKFRMGTLLQRIGELHETFFLLSGRKKPLSLPVVHTASPPMLAIPKVILDHYHMSLSRFVQYLCEEGQGKRLSFAKEEGEFLYFHIESPLSPAGEGPFLFHLDGTLRIPVKKEKTFSLPEIHAHYLLLYNLSMISRYETEWWSELLHSYPSKAYTFILEFLSVSAEKVPLLLHEYLMRKFLG	not soluble
MFGRLKQKVKEKTGRAKATTLPAEVDDAMGYFKNLTPRVKDLHKSMTNLEDISKWQKKASFSGTLENYSRLGDKINVKPFMDAVDARMGAEADAVKGVLAICEKYKSFYQNEGKLHADSIANLNRTRLDMDSAADKYANNETEVNKTRLDNSTTEFEVACERMRELANGIKTIESNHSSWQDGLMKEIKVALRK	not soluble
MFGVKDAIFKIKRSIAGTDSSDSTAYTTASESSPQLKDSHNPFRNKTTSERTIVEEGSLPPVRLNGYLPSTKNKLLTPEMCDEIRTLMPTRIQLYTEWNLLYSLEQHGSSLHSLYSNVAPDSKEFRRVGYVLVIKDRKNGIFGAYSNEAFHPNEHRQYTGNGECFLWKLDKVPDVNISEKEESEQEGKEGKEEGDKEERWRFSGYPYTGVNEFAIYCTSEFLSMGAGDGHYGLLCDDGLLHGVSNPCQTYGNEVLSKEGKKFSIVALEVWRVG	soluble
MFGVTLWEMFSGGEEPWAGVPPYLILQRLEDRARLPRPPLCSRALYSLALRCWAPHPADRPSFSHLEGLLQEAGPSEACCVRDVTEPGALRMETGDPITVIEGSPDSTIWKGQNGRTFKVGSFPASAVTLADAGGLPATRPVHRGTPARGDQHPGSIDGDRKKANLWDAPPARGQRRNMPLERMKGISRSLESVLSLGPRPTGGGSSPPEIRQARAVPQGPPGLPPRPPLSSSSPQPSQPSRERLPWPKRKPPHNHPMGMPGARKAAALSGGLLSDPELQRKIMEVELSVHGVTHQECQTALGATGGDVVSAIRNLKVDQLFHLSSRSRADCWRILEHYQWDLSAASRYVLARP	soluble
MFHAAFMEERVFSDRGSMRNACSSIEYDGCRQGQSGPLLEEKEVKRKLFGALALVAMLAAPALAEAATRGFATANVNMRSGPSTAYPAVVVIPVGAPLTVHGCLSDTPWCDVSFVNGRGWVAGRYIQTTFRQNRVYVEPRYYRDLGVPVITFEAGRYWDRYYRDRDFYRERDRWRRPPPSGGYWNAPPPSAGWDRPRPRDDWRDGRRDDGRRDEWRDPRQGGPNDGRWERRYGDWNQGDRNQDRPRRDDDRRRWEDENRDRNRDRDSNRDGNRDRPQNQYDGQRGQLEGQPRPPAPAPDAPLQGCIIGSPGCAQRLEHHHHHH	soluble
MFHCKGLYMSDQNDKLKNLKTSSMDRRLSIAKASLLAGTRWATASATSMFSSEAEKEKKRKKAMTEQANYLVSEIGKLKGSIVKIGQMMALYGEHFLPEEITQALNTLNNQTVALAWPAIKAHLQEQLGSKLDDLIIDHEPIGTASLAQVHRATRKSDGLELVLKIQYPGVAEAIDSDMSLFKNMLKLTRMVPQTREFDQWFDEVREMMHREVSYDIEAATTRRFAERLKTDPRYAVPQIIDAYCTTKILCMTFERGVPINSPVMLSLPQERRNKLGEASLEIAVREIFEWGEMQTDPNFGNYLVRLGNGTDIQDKIVLLDFGAIRQFDEHLLSVARNLIRAGYNHSNEEMVRAMTGYSFFDSIPESIKPDMAKVFLLATEAFSCPENNPDMPTGLMDEDNRYDWKKSQLHSRVMQQASKSMASRYFSVPPKEFMFISRKFIGAYTFMTVIEAKTNVRRMISHFVK	soluble
MFIGYKSSKSKKILIMNSKGGAGKSSLTMAMARLFSSKNIKTELIDLDPQNTSYFWGGNNKEIRTQTFLTSSRVPFSLALKLELDTELTIIDTPSNFNKFELDKYLSLADKIILPLQASPIDLHSILGFIKNLIASPVYKKRNIPVCFVITRYKGRVGDLELMHRVLNKLKYPIIGVMSESDAYQSLFIDEDVKVFQYLDKNLWVEIERWINI	not soluble
MFILSAQRLSGTQVFRRLAEGCTGYSVSSGCRQRRRCCPGAPQRPRRVRVNALQLQSGLADPLDPKSEAEVREHLRSNSPAERALGINYARYLDESTRYDILLEMMEDTDPQVRYAAVTQLATVGSHDRQRTLKAVRKILWNTEEDASVRAGAADVLGGLRFHEAFPDLEKLFHESKDWVVRFSIIAALGEMGVREAFPILVEALHANKEPLVQLAAIGALGELGDERARVYLEPLVNSSDASIVERARFALDALDARGSERT	not soluble
MFKGDMNKKRAKALQKVKEAITLHGGQTILSTGITGDDARLAKAVCEAGVKLLEPNHPALALARGHKGVSNMHAAEQIRHEITNSQMAEAVHGVRNVVPDDIFITVGIAGGFTETLPVPLSEKEILEIARAGADGLHTHKSDWDDLQDIVNLAHQYGLTVDAYIGHPDDLHTFGIPARTPEEVASVAKRMQDIGVDMIGLMTGMSYEGVAAGDIPQMIKDRLRALVGAVDVPTLAEGGINLANAKAFKDTGVNILVVGTAIDNMVCNAAKEAVTPFIVH	soluble
MFKRLMMVALLVIAPLSAATAADQSNPYKLMNEAAQKTFDRLKNEQPKIRANPDYLRDVVDQELLPYVQVKYAGALVLGRYYKEATPAQREAYFAAFREYLKQAYGQALAMYHGQTYQIAPEQPLGDATIVPIRVTIIDPNGRPPVRLDFQWRKNTQTGNWQAYDMIAEGVSMITTKQNEWSDLLRTKGIDGLTAQLKSISQQKITLDEKQLEHHHHHH	soluble
MFLKAGESKTVTIDLDERAFAYWSEKYNDWHVEAGEYAIEVGVSSRDIADTVAVALDGDGKTQPLTEWSTYGEWEADPFGAKIVAAVAAAGEAGELTKLPDNAMMRMFLNPMPINSLPTLLGEGGKKIAQFMVDEYAKLAK	not soluble
MFLKRIELQREKVLSFQEYPFSIPAIKHFQRLELKSRVTFFVGENGSGKSTLLEAIADKCEFNTAGGGRNNYYEVDASESALGDYIRLSWLPKVSNGFFLRAESFYHFASHVDEVDARHAYGGRSLHHQSHGEAFLSLFANRFNRKGIYLLDEPEAALSPRRQLSFLAILHDLVSSGDSQFIIATHSPILLGYPHATILSFDHGTIEETTYEQTEHYQLTRYFLENRERMLRELLGELEHHHHHH	not soluble
MFLSTKFLPMSDTVIRIENLSKKYIIAHQQQERYTVLRDVIANQIKSLGSLINPKAKTENPNCEEFWALKDVSFEIKQGDRVGIIGRNGAGKSTLLKILSRITEPTHGCINIKGRIASLLEVGTGFHPELTGRENIYLNGAILGMSKAEIKRKFDEIVAFSEVEKFLDTPVKRYSSGMYVRLAFAVAAHLEPEILIVDEVLAVGDAAFQQKCLGKMEDVGKEGRTVLFVSHNMATVKQLCNCAFLLYQGNLIFQGNPHEAISQYMQKSTQGKHFHQANIYHHIKGDFRAEIEKITINNLDNSEIALSIFEKVKISIKYKINKPIDELDFFVLIYNLEDGEVQTSLFQRDSLSNIQPLSNYGTISVEFTNPLMPGKYTISAGIFDKNKRFVDWVELAESFYVESAFINGNKYDQRLGKISIQGTWYAE	not soluble
MFLTAVRRSSNVLKTFKPLYDRVLVERVAAETKTKGGIMLPEKSQGKVLEATVVSAGAGLRNEKGELVALTVKPGDRVLLPEYGGTKVVVEDKEYSIFRESDLLGVFH	not soluble
MFNFEKFWQHFNDEMRARFNEVAYNAWFKNTKPISYNQKTHELKIQVQNPVAKGYWEKNLSSQLIQSAYGYAGVELLPVFQISEDSDTPERIVTPEPQHNLQTTPTRAPQREFAKDLKLNEKYTFDNFVQGEGNKLAAGAALAVADSPGSFYNPLFIFGGVGLGKTHLMQAIGHQMLVERPNAKVVYIQSETFVNDFINSIKNKTQDKFREKYRTCDLLLVDDIQFFAKKEGIQEEFFHTFETLYNDQKQIVMTSDRLPTEIPDLSERLVSRFTWGLQVEITPPDLETRIAILRRKAEAEGLTIDDDTLDYIASQVDTNIRELEGALVKVQAYATIEKADIDINLAREALVDLKLVQKNRGLQIPKIQEVVANYFQTSTAELKGKKRVRQIVIPRQIAMYLSRELTDASLPKIGQEFGGKDHTTVMHAYDKIDKQMKTDADIKTAVFDLKQMLEHLEHHHHHH	not soluble
MFQALLTKLKNNAALGAAANNLNKFRSSNLGNQRRSVSVAVTSTSPKSEKPVAREHMIYDETHFVMQKSLGKLIEEKINPNVAKWEQDGRYPAHLVFKMLGDHGVFGVNKPEAFGGTGTDIAMATAIAEQMGAINCGSIPMSVMVQTDMSTPALAQFGSDALRERFLRPSITGDLVSSLAVSEPHAGSDVSAVHTHARRQGSDLIINGSKMWITNGGQADWACVLVNTSNTSNVHKNKSLVCVPLDAVGVHRSTPLDKLGMRSSDTVQLFFEDVRVPSSYIIGEEGRGFGYQMKQFNDERLVTVAVGLLPLQKCIDETIEYARDRLLFGKTLLDQQYIQFQLAELEAELEATRALLYRTVLARSRGDDVSMLTAMAKLKIGRLARAITDQCLQVWGGAGYLNENGISRAFRDFRLFSIGAGCDEVMMRIIHKAQSRRQLKKA	not soluble
MFRIASSSYSQFIASANPSIQTRCISIARIDQKIKRGNSDRRVIHAKKFTKQTDSPASVAGDGFILSKTFLQNAIAHQPPSGLTPVGRDGGRDEKKLILHPKEIVEHLNKYVVGQEEAKKYLAVAVYQHYRRVENNLRVTEQWMLSEAVAAAKERKKMRKQNPEEEEYYPEYVQKSQRQILKDLEKRQDMILDKSNMILLGASGTGKTFMTQKLAEVLDVPIVICDCTTLTQAGYVGDDVDTVIQKLLAEAMGDIEKCQRGIVFLDEFDKIYTSSDPLHTSGNRDVSGKGVQQALLKLVEGSLVKVRDPLAPNSKVTIDTSNILFIASGAFSNIEHIVARRMDKRLVTSLLFHFPQ	not soluble
